Measured values as given in publication PMC11429891.

Molecular target: human recombinant SNAP25 (Synaptosomal Associated Protein 25) (human), P60880
Assay: SPR

Sequence of human recombinant SNAP25 (Synaptosomal Associated Protein 25) (human), P60880 (P60880 whole entry): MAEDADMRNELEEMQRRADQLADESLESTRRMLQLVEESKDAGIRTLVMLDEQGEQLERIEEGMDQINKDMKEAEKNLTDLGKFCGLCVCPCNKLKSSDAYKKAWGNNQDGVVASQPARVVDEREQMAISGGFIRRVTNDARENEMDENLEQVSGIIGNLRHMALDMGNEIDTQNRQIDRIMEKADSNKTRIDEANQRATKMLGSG

Kd: 15 nM
B1: Bovine Type VI Collagen (complex)
chain 1: not shown
chain 2: QQQEVISPGPSDRNSCPEKADCPVHVYFVLDTSESITMQSPTDSLLYHMQQFVLQFISQLQDELYLDQVALSWRYGGLHFSDLVEVFSPPGSDRASFTKSLQSISSFRRGTFTDCMLANMTQEVRRHVGKGVVNFAVVITDGHVTGSPCGGIKLQAERAREEGIRLFAVPPNLKLNEQGLRDIANTPHELYRNNYATMRPDSTEIDQDTINRIIKVMKHEAYGECYKVSCLEIPGPPGPKGYRGQKGAKGNMGEPGEPGQKGRQGDPGIEGPIGFPGPKGVPGFKGEKGEFGADGRKGAPGLAGKNGTDGQKGKLGRIGPPGCKGDTGDRGPDGYVGEAGSPGERGDQGSKGDPGRPGRRGPPGENGAKGSKGYQGNNGAPGSPGLKGAKGGPGPRGPKGEPGRRGDPGTKGGPGSDGPKGEKGDPGPEGPRGLAGEVGNKGAKANRGLPGPRGPQGTVGEPGKQGSRGDPGDAGPRGDSGQPGPKGDPGRPGFSYPGPRGAPGDKGEPGPPGPEGGRGDFGSKGEPGRKGQKGEPADPGPPGEPGPRGQRGAPGPEGEPGPPGDPGLTECDVMTYVRETCGCCDCEKRCGALDVVFVIDSSESIGYTNFTLEKNFVINVVNRLGAIAKDPKSETGTRVGVVQYSHEGTFEAIQLDDERIDSLSSFKEAVKNLEWIAGGTWTPSALKFAYNKLIKESRRQKTRVFAVVITDGRHDPRDDDLNLRALCNHEVTVTAIGIGDMFHEKHESENLYSIACDKPQQVRNMTLFSDLVAEKFIDDMEDVLCPDPQIVCPDLPCQTELYVAQCTQRPVDIVFLLDGSERLGEQNFHKVRRFVEEVSRRLTLARKDDDPLNARVALLQFGGPREQQVAFPLTSNLTVIQEALASARYLNSFSHVGTGIVQAINQVVQGARAGARRHAELSFVFLTDGVTGNDSLDEAVHSMRKQNVVPTVVAVGSDVDTDVLSKISLGDPAAVFREKDYDSLAQPGFFDRFIRWIC
chain 3: not shown
